Positions count from the first letter of the chain named. Where two headings read alike, the source gives them in different places.

A word on the Kd: it is the constant that tells how readily two partners part at equilibrium.

Experiment [1] addresses T1, bond between rTRX and rMIF (Homo sapiens, UniProt P10599).
T1 construct: His tag; made in house; host or cells: Escherichia coli
T1 sequence (P10599 1-105): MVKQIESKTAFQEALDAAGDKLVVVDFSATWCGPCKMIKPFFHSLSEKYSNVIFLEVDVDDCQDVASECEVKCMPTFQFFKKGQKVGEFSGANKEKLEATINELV
Kind of experiment: Screening by molecular interaction analysis (Biacore, SPR) for substances that strengthen the bond between TRX and MIF, Example 7. It is filed as binding. To be noted: analyte: rTRX 5 μM mixed with test substance 500 μM (Prostaglandin I2 also 5 μM); compared with rTRX only (FIGS. 7 to 11). The method, then: For several test substances, it was confirmed with a molecular interaction analysis whether they strengthened the bond between TRX and MIF or not. rMIF was immobilized in a CM5 sensor chip as a ligand. The ligand was adjusted to have the rMIF concentration of less or equal to 200 nM by using running buffer, 10 mM HEPES (pH7.4), 150 mM NaCl, 3 mM EDTA and 0.005% Tween 20. […] In each analyte, the concentration of rTRX was 5 μM and the concentration of the test substance was 500 μM. For Prostaglandin I2, the analyte having its concentration of 5 μM was also analyzed.
In general terms: In SPR one partner is held on a chip, and binding of the other changes the refractive index at the surface.

Experiment [2] deals with T2, rMIF (Homo sapiens, UniProt P14174).
T2 construct: His tag; made in house; host or cells: Escherichia coli
T2 sequence (P14174 1-115): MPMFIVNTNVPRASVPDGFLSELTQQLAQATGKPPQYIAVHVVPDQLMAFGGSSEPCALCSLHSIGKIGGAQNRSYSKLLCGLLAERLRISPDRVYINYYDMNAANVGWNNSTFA
Kind of experiment: Molecular interaction analysis (Biacore, SPR) of rTRX variants and rMIF in oxidation and reduction states, Example 6. It is filed as binding. To be noted: for change of the dissociation constant value between oxidation state and reduction state: oxidation state versus reduction state; for Kd: rMIF immobilized on CM5 sensor chip, read-out: KD (dissociation constant value). The method, then: It was confirmed with a molecular interaction analysis whether the cysteine residues at 32 and 35 positions (the active site of TRX) affect the bond between TRX and MIF or not.
rMIF was immobilized in a CM5 sensor chip as a ligand, wherein the concentration of rMIF was adjusted to less than or equal to 200 nM.
Then, rWT TRX, rDM TRX and rC35S TRX were used as analytes to analyze the interaction between these rTRX and rMIF in both oxidation and reduction states, respectively.
In the oxidation state, running buffer, 10 mM HEPES (pH7.4), 150 mM NaCl, 3 mM EDTA and 0.005% Tween 20 were used to adjust the ligand. In the reduction state, 1M DTT was used in addition to the running buffer, 10 mM HEPES (pH7.4), 150 mM NaCl, 3 mM EDTA and 0.005% Tween 20 to adjust the ligand.
Tables 1 and 2 show the dissociation constant value (KD value) calculated from FIG. 6.

The target of experiment [3] is T3, MIF (Homo sapiens, UniProt P14174).
T3 construct: endogenous in cells; host or cells: ATL2 cells (concentrated culture supernatant)
T3 sequence (P14174 1-115): T2 sequence (P14174 1-115)
Description: Immunoprecipitation / Western blotting of the bond between TRX and MIF outside ATL2 cells (culture supernatant). The class given is binding. The note with it: anti MIF antibody immunoprecipitation, anti TRX Western blotting (FIG. 2). As to the method: The bond between TRX and MIF outside ATL2 cells was confirmed with an immunoprecipitation method.
1×10^5/cell of the ATL2 cells were cultured with RPMI 1640 (SIGMA Inc.) medium containing 100 U/ml penicillin and 100 μg/ml streptomycin in a 175 cm^2 flask for 3 days. Then, the medium was collected and centrifugated at 10,000 rpm and 4° C. for 15 minutes. Then, FCS was added to the obtained supernatant to adjust the final concentration to 10%, and the solution was concentrated with Amicon ultra-4. The obtained concentrated-solution was used for the immunoprecipitation experiment. 20 μl Protein G Sepharose and 30 μl of the culture supernatant were added to a microtube, and phosphate buffer was used to adjust the amount to 1 ml. The obtained solution was reacted at 4° C. for 3 hours with a small rotary incubator. The cell solution was centrifugated at 15,000 rpm and 4° C. for 2 minutes. The obtained supernatant was added to a new microtube, and 20 μl Protein G Sepharose and 4 μg/ml of the anti MIF antibody were also added thereto.
(§1) For a control, anti Rabbit antibody was used instead of the anti MIF antibody.
The reaction was carried out with a small rotary incubator at 4° C. for overnight. The reaction solution was centrifugated at 15,000 rpm and 4° C. for 2 minutes. The precipitation was washed with washing buffer (50 mM Tris-HCl (pH7.5), 150 mM NaCl, 0.1% NP40). […]
On the technique in general: A western blot detects proteins with antibodies after separation by electrophoresis.

For experiment [4], the target named is T3, MIF. Description: Immunoprecipitation / Western blotting of the bond between TRX and MIF in cells. The class given is cell-based. To be noted: ATL2 cells and HL60 cells; anti MIF antibody immunoprecipitation, anti TRX Western blotting (FIG. 1). As to the method:
The bonds between TRX and MIF in ATL2 cells and HL60 cells were confirmed with an immunoprecipitation method (to be described in detail below).
The cells were cultured with RPMI 1640 (SIGMA Inc.) medium containing 10% FCS, 100 U/ml penicillin and 100 μg/ml streptomycin in a 175 cm^2 flask.
1×10^7˜8/cell of the cells were collected and centrifugated at 1,000 rpm and 4° C. for 15 minutes. The obtained precipitation was dissolved with lysis buffer and left on the ice for 30 minutes.
The solution was centrifugated at 1,000 rpm and 4° C. for 15 minutes. The obtained supernatant was used for the immunoprecipitation experiment. The concentration of the protein was measured with DC protein assay kit (BIO RAD Inc.).
20 μl Protein G Sepharose and 500 μg of the cell solution were added to a microtube, and phosphate buffer was used to adjust the amount to 1 ml. The obtained solution was reacted at 4° C. for 3 hours with a small rotary incubator. The cell solution was centrifugated at 15,000 rpm and 4° C. for 2 minutes. The obtained supernatant was added to a new microtube, and 20 μl Protein G Sepharose and 4 μg/ml anti MIF antibody were also added thereto.
as §1
The reaction was carried out with a small rotary incubator at 4° C. for overnight. The reaction solution was centrifugated at 15,000 rpm and 4° C. for 2 minutes. […]

The next experiment relates to RAW 264.7 cells. Kind of experiment: Inhibition of MIF activity measured as TNF-alpha production in RAW 264.7 cells (ELISA). The class given is cell-based, mouse. To be noted: MIF 10 ng/ml, 0 to 500 ng/ml TRX, LPS 100 ng/ml (FIG. 4). As to the method:
TRX's inhibition of MIF activity was confirmed by measuring a concentration of inflammatory cytokine TNF-α (to be described in detail below).
RAW 264.7 cells were cultured with RPMI 1640 medium containing 10% FCS, 100 U/ml penicillin and 100 μg/ml streptomycin in a 75 cm^2 flask.
RAW 264.7 cells were added to a 24 well plate (1×10^6/cell). MIF having a final concentration of 10 ng/ml and 0 to 500 ng/ml TRX were also added thereto, and left under the condition of 5% CO2 at 37° C. for 4 hours.
Further, 100 ng/ml of LPS was added to the plate (described as LPS (+)), and the plate was left under the condition of 5% CO2 at 37° C. for 4 hours. Then, the medium was collected.
Amount of the generated TNF-alpha (α) was measured with Duo Set ELISA Development system mouse TNF-α kit.
The measuring method was based on the protocol attached to the kit.
For orientation: An ELISA detects its analyte on a solid surface through an enzyme-linked reagent.

The subject of the next experiment is ATL2 cells. Kind of experiment: Inhibition of the cell internalization of MIF into ATL2 cells (Western blotting, densitometer). It is filed as cell-based, human. The note with it: rTRX 0 to 250 μg/ml, 25 μg/ml rMIF, 24 hours (FIG. 3). As to the method:
MIF is internalized (incorporated) into cells by the autocrine or paracrine action to induce the production of inflammatory cytokine TNF-alpha(α) or IL-1. Thus, the effects of TRX on the cell internalization of MIF were examined to clarify the inflammation response control mechanism.
ATL2 cells were cultured with RPMI 1640 medium containing 10% FCS, 100 U/ml penicillin and 100 μg/ml streptomycin in a 75 cm^2 flask.
1×10^6/cell of ATL2 cells were added to a 24 well plate. rTRX having the final concentration of 0 to 250 μg/ml and 25 μg/ml rMIF were also added thereto, and cultured under the condition of […] at 37° C. for 24 hours.
After cells were collected, the precipitation was mixed with SDS-PAGE sample buffer, and then electrophoresed on a 15% SDS-PAGE gel. After the electrocataphoresis, a Western blotting was performed to detect MIF internalized in the cells with anti His-tagged antibody. The change of the band by the Western blotting was analyzed with a densitometer.

Experiment [5] addresses T2, rMIF. Description: Molecular interaction analysis (Biacore, SPR) of the bond between rTRX and rMIF, Example 5. The class given is binding. To be noted: rMIF immobilized on CM5 sensor chip; rTRX 2 to 12 μM (FIG. 5). As to the method:
The bond between TRX and MIF was confirmed with a molecular interaction analysis (Biacore) (hereinafter, referred to as “molecular interaction analysis”) utilizing surface plasmon resonance (SPR) phenomenon.
rMIF was immobilized in a CM5 sensor chip as a ligand. The ligand was adjusted to include MIF less or equal to 200 nM by using running buffer, 10 mM HEPES (pH7.4), 150 mM NaCl, 3 mM EDTA and 0.005% Tween 20.
Then, rTRX was used as an analyte to analyze the interaction between rTRX and rMIF. The concentration of rTRX was changed to 2 μM, 4 μM, 6 μM, 8 μM, 10 μM and 12 μM for the analysis.

The mark [6] stands for this setting: reduction state (DTT added to running buffer).

With `CCCCC[C@H](O)/C=C/[C@@H]1[C@H]2C/C(=C/CCCC(=O)O)O[C@H]2C[C@H]1O` [Prostaglandin I2], the “effect of the test substance on the bond between rTRX and rMIF” value in experiment [1] was “remarkably strengthen the bond between rTRX and rMIF”.

Consider `N[C@@H](CCC(=O)N[C@@H](CSN=O)C(=O)NCC(=O)O)C(=O)O` [Nitrosoglutathione], for which the “effect of the test substance on the bond between rTRX and rMIF” value in experiment [1] is “remarkably strengthen the bond between rTRX and rMIF”.

B1: rTRX: Recombinant thioredoxin; His-tagged, expressed in Escherichia coli (Examples 5-7); from Ajinomoto in Examples 3-4 (protein)
chain: T1 sequence (P10599 1-105)
modifications: left off: small tags and cut ends
B1: in the experiment with rMIF [2] (FIG. 6, Tables 1 and 2), the “direct bond with rMIF” value is listed as “bonded directly with rMIF”. Moreover, the “change of the dissociation constant value between oxidation state and reduction state” value in the experiment with rMIF [2] is recorded as “almost no changes in the dissociation constant values”. Also, the figures for the equilibrium dissociation constant (Kd) with rMIF [2] (oxidation state) and with rMIF [2] (setting [6]) were 25.3 µM and 29.7 µM, respectively. For the same molecule, in the experiment with MIF [3], the “bond between TRX and MIF outside cells” value is listed as “bonds directly with MIF”. The “bond between TRX and MIF in cells” value with MIF [4] is on record as “bonds directly with MIF”. In the experiment with RAW 264.7 cells, the “inhibition of rMIF activity” value is on record as “inhibits the activity of rMIF depending on the concentration of rTRX”. The “production of MIF-derived TNF-alpha” value with RAW 264.7 cells is given as “inhibits the production of MIF-derived TNF-alpha”. For the same molecule, the “internalization of MIF into cells” value in the experiment on ATL2 cells was “inhibits the internalization of MIF into the ATL2 cells”. In addition, in the experiment with rMIF [5], the “bond between rTRX and rMIF (surface plasmon resonance)” value is “concentration-dependent”.

B2: rDM TRX: the rTRX of Example 5 in which the cysteine residues at 32 and 35 positions were converted to serine (protein)
chain: T1 sequence (P10599 1-105) with C32S, C35S
modifications: left off: small tags and cut ends
As for B2, the “direct bond with rMIF” value with rMIF [2] (FIG. 6, Tables 1 and 2) is given as “bonded directly with rMIF”. The “change of the dissociation constant value between oxidation state and reduction state” value in the experiment with rMIF [2] is given as “almost no changes in the dissociation constant values”. For the same molecule, the Kd was found to be 11.9 µM with rMIF [2] (oxidation state) and 16.6 µM with rMIF [2] (setting [6]).

B3: rC35S TRX: the rTRX of Example 5 in which the cysteine residue at 35 position was converted to serine (protein)
chain: T1 sequence (P10599 1-105) with C35S
modifications: left off: small tags and cut ends
For the molecule B3, in the experiment with rMIF [2] (FIG. 6, Tables 1 and 2), the “direct bond with rMIF” value is on record as “bonded directly with rMIF”; the “strength of the bond with rMIF compared with the other rTRX” value is “stronger than the bond between rWT TRX or rDM TRX and MIF”. Besides, the “change of the dissociation constant value between oxidation state and reduction state” value in the experiment with rMIF [2] is listed as “strong bond with rMIF in the oxidation state”. In the experiment with rMIF [2] (oxidation state), the dissociation constant (Kd) worked out at 3.95 µM.
